# Results reported in patent publication US6613878B1, “PCNA binding substance” (Cyclacel Limited, priority 1995, dated 2003).
# Ends that are not written are not given here.
# Experiments:
# PCNA [1] = molecular target: T1, PCNA (Homo sapiens, UniProt P12004); assay: Peptide precipitation of PCNA from HeLa cell lysate, PC10 Western blot; assay type: binding; set-up: HeLa cell lysate was added to the washed beads to a final protein concentration of 1 mg/ml; endogenous in cells; host or cells: HeLa; details: 2.7 μg peptide on beads; HeLa lysate 1 mg/ml; PC10 immunoblot
# T1 sequence (P12004 whole entry): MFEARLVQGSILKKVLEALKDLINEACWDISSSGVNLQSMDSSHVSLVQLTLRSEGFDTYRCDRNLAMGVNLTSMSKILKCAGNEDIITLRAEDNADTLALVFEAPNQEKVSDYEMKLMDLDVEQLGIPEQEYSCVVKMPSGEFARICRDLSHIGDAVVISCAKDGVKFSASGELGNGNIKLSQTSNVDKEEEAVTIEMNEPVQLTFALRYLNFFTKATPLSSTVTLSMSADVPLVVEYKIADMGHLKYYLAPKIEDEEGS
# Description: Twenty amino acid peptides with 15 amino acid overlaps were synthesized (Chiron Mimotopes, Australia) across the 89 amino acids from the C-terminal region of Fen1 identified in the two hybrid screen as the PCNA binding site on Fen1. These peptides were linked via residues SGSG (SEQ ID NO:3) at the amino acid terminus to biotin. 2.7 μg of each peptide was incubated with 10 μl streptavidin agarose beads (Sigma) in phosphate buffered saline (PBS) for 1 hour at room temperature (r.t.) then beads were washed extensively in PBS and recovered each time by centrifugation at 11,600 g. HeLa cell lysate was added to the washed beads to a final protein concentration of 1 mg/ml and incubated with the beads on ice for 1 hour. Beads were extensively washed in PBS with 220 mM NaCl, then bound proteins removed by boiling for 8 minutes in SDS loading buffer with 0.2 M DTT. Proteins were separated on 10% SDS-PAGE then electrophoretically transferred to nitrocellulose. Blots were blocked then incubated for 1 hour r.t. with PC 10 hybridoma supernatant (Waseem & Lane, 1990) diluted 1:5 in DMEM with 10% FCS. After washing, secondary HRP-conjugated anti-mouse IgG serum at 1:1000 in 2% non-fat milk-PBS-0.2% Tween was added for 1 hour at r.t. Bound antibody was visualised using the ECL system according to the manufacturer's instructions (Amersham plc.)
# To map precisely the residues of Fen1 to which PCNA binds, a series of biotinylated 20 amino acids peptides (with 15 amino acid overlaps) were synthesized representing the region of Fen1 found to interact with PCNA in the two hybrid screen (FIG. 1). Fen1 peptides (bound to streptavidin agarose beads) were incubated with human HeLa cell extracts, then beads were precipitated and bound protein analysed on immunoblots probed with monoclonal anti-PCNA antibody PC10 (Waseen & Lane, 1990).
# The region of human Fen1 recognised by PCNA in the precipitation assay contains a motif highly conserved in the Fen1 family. We examined whether human PCNA could bind to his motif in the yeast homologues of Fen1, S. pombe rad2 and […]/YKL510. […]
# PCNA [2] = molecular target: T1, PCNA; assay: Competitive ELISA: PCNA binding to immobilised FenPBP (peptide 84); set-up: made in house; used as unpurified lysate; details: non-biotinylated 9-mer, FIG. 4
# Description: Biotinylated FenPBP (peptide 84 (SEQ ID NO:4)—see FIG. 2) was immobilised on ELISA dishes pre-coated with streptavidin. Bacterial cell lysate overexpressing recombinant human PCNA was mixed with increasing amounts of a non-biotinylated 9 amino acid peptide QTSMTDFYH (SEQ ID NO:2) derived from p21PBP (Warbrick et al., 1995), then binding of PCNA to the immobilised FenPBP was measured using polyclonal antibody 3009 against PCNA, followed by HRP-anti-rabbit antibody,and calorimetric detection at 450 nm.
# ELISA plates were coated overnight at 37° C. with 100 ng of streptavidin per well. Plates were blocked with 5% non-fat milk powder in PBS, washed extensively with PBS containing 0.2% Tween 20 (PBS-T) then 100 μl FenPBP—peptide 84 (SEQ ID NO:4) (see FIG. 2)—at 10 μg/ml was added to each well. Following 1 hour incubation at r.t. in a humid chamber, wells were washed extensively. Approximately 3.5 μg total protein containing overexpressed recombinant human PCNA was mixed with varying concentrations of a 9 amino acid peptide derived from p21PBP (Warbrick et al, 1995), of the sequence QTSMTDFYH (SEQ ID NO:2) (purified by HPLC and verified by mass spectrometry) and applied to the wells for 1 hour at r.t. After extensive washing, anti-PCNA polyclonal antibody 3009 (Cox et al., manuscript in preparation) was added at 1:1000, followed by HRP-conjugated anti-rabbit IgG serum at 1:1000, and bound antibody was visualized by the TMB colormetric procedure (Harlow & Lane, 1998). Plated were read at 450 nm using a Dynatech 5000 plate reader.
# Since the region of PCNA bound by Fen1 is the same as that recognised by p21^Cip1, and the motif of Fen1 required for PCNA interaction appears homologous to the critical residues of p21PBP (Warbrick et al., 1995), it is highly possible that Fen1 and p21^Cip1 might compete for binding to PCNA. We therefore tested this hypothesis using PCNA-interacting peptide 84 (SEQ ID NO:4) of Fen1 (dubbed Fen1PBP for Fen1-PCNA binding peptide) immobilised in ELISA wells. […]
PCNA precipitated from HeLa cell extract by biotinylated peptide on streptavidin agarose beads (PCNA [1]),Concentration of added peptide giving total displacement of PCNA from immobilised Fen1PBP (PCNA [2]; immobilised Fen1PBP),Concentration of peptide that completely prevented PCNA binding to Fen1PBP (approximate molar) (PCNA [2]; immobilised biotinylated FenPBP),"Concentration of peptide that completely prevented PCNA binding to Fen1PBP (PCNA [2]; immobilised biotinylated FenPBP, antibody 3009, read at 450 nm)",Substance
equal efficiency,–,–,–,85: Biotinylated 20 amino acid peptide of the human Fen1 C-terminal region containing TQGRLDDFFK (SGSGSRQGSTQGRLDDFFKVTGSL; also: biotinylated) [compound 85]
equal efficiency,–,–,–,86: Biotinylated 20 amino acid peptide of the human Fen1 C-terminal region containing TQGRLDDFFK (SGSGTQGRLDDFFKVTGSLSSAKR; also: biotinylated) [compound 86]
–,1 mM,approximately 1 μM,1 µg/mL,"QTSMTDFYH [Non-biotinylated 9 amino acid peptide derived from p21PBP (Warbrick et al., 1995)]"
equal efficiency,–,–,–,"peptide 84: Biotinylated (SGSG-linked) 20 amino acid peptide of the human Fen1 C-terminal region containing TQGRLDDFFK; Fen1-PCNA binding peptide (SGSGKRLSKSRQGSTQGRLDDFFK; also: biotinylated, site not given here)"
